Assay results as given in paper PMC12221286, “Endogenous formation of phosphatidylhomoserine in Escherichia coli through phosphatidylserine synthase” (The Journal of Biological Chemistry, 2025).

Substrate: N[C@@H](CCO)C(=O)O
Assay: purified protein
Type: biochemical, Escherichia coli
Conditions: 0.3 mM 18:1/18:1 CDP-DAG, 10 mM MgCl2, 0.1 M KCl, 2.4 mM Triton X-100, pH 7.5, 25 °C, apparent constants

B1: EcPssA (E. coli phosphatidylserine synthase A, PssA) (Escherichia coli K-12) (protein)
chain: MLSKFKRNKHQQHLAQLPKISQSVDDVDFFYAPADFRETLLEKIASAKQRICIVALYLEQDDGGKGILNALYEAKRQRPELDVRVLVDWHRAQRGRIGAAASNTNADWYCRMAQENPGVDVPVYGVPINTREALGVLHFKGFIIDDSVLYSGASLNDVYLHQHDKYRYDRYHLIRNRKMSDIMFEWVTQNIMNGRGVNRLDDVNRPKSPEIKNDIRLFRQELRDAAYHFQGDADNDQLSVTPLVGLGKSSLLNKTIFHLMPCAEQKLTICTPYFNLPAILVRNIIQLLREGKKVEIIVGDKTANDFYIPEDEPFKIIGALPYLYEINLRRFLSRLQYYVNTDQLVVRLWKDDDNTYHLKGMWVDDKWMLITGNNLNPRAWRLDLENAILIHDPQLELAPQREKELELIREHTTIVKHYRDLQSIADYPVKVRKLIRRLRRIRIDRLISRIL
notes: purified EcPssA in Tris/NaCl/glycerol/octyl glucoside
B1 showed a Km of 4.6 ± 0.02 mM and a kcat of 2.86 ± 0.04 s⁻¹.
